Measurements reported in US6835539B1, “Nucleic sequences coding for an AT2 interacting proteins interacting with the AT2 receptor and their applications” (priority 1998, dated 2004).

T1: AT2 receptor (Homo sapiens, UniProt P50052)
T1 sequence (P50052 1-363): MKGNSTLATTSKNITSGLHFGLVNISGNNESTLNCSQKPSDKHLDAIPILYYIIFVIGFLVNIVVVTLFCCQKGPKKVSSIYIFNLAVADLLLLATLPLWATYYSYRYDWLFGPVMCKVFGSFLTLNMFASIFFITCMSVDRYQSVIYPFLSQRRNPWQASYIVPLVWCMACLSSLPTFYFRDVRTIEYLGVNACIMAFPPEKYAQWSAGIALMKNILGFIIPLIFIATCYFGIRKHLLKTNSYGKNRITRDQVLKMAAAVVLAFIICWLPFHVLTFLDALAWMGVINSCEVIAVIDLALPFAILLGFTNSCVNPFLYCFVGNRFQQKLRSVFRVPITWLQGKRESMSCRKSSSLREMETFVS

T2: C-terminal end of the mouse AT2 receptor (Mus musculus, UniProt P35374)
T2 construct: expressed in transfected cells; host or cells: yeast HF7c (pGBT9 bait) or L40 (pLex9 bait)
T2 sequence (P35374 312-363): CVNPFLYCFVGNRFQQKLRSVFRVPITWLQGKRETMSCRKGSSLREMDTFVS

T3: C-terminal end of the human AT2 receptor (Asn314-Ser363) (Homo sapiens, UniProt P50052)
T3 construct: C-terminal end of the human AT2 receptor (Asn314-Ser363); made in house; host or cells: E. coli DH5α (pMAL-c2-AT2)
T3 sequence (P50052 314-363): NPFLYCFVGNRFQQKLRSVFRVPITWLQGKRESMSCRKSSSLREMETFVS

T4: C-terminal end of human AT1 receptor (Leu 297-Glu 359) (Homo sapiens, UniProt P30556)
T4 construct: C-terminal end of human AT1 receptor (Leu 297-Glu 359); made in house; host or cells: bacteria, same protocol as MBP-AT2 (E. coli DH5α)
T4 sequence (P30556 297-359): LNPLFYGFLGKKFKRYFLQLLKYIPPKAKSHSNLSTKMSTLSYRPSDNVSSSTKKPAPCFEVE


Legend:
AT2 receptor [1] = target: T1, AT2 receptor; assay: Inhibition of insulin-induced tyrosine phosphorylation in CHO-hAT2-ATIP cells; type: cell-based; design: a plasmid containing the region encoding the human AT2 receptor; expressed in transfected cells; host or cells: CHO-hAT2 cells stably transfected with ATIPmouse-long; details: 100 nM, insulin 0.05, 0.01, 0.005, 0.001 μg/ml, reproduced 3 times
From the text: (§1) For that, a stable clone of CHO-hAT2 cells expressing the ATIPmouse-long protein (CHO-hAT2-ATIP), obtained according to the methodology described in Example 4, was used; the functional test for the activity of the AT2 receptor developed on the CHO-hAT2 clone which consists in inhibiting the phosphorylation of the IRβ subunit of the insulin receptor induced by its ligand, was reproduced.
The CHO-hAT2 cells are inoculated at a density of 3×10^6 cells per dish having a diameter of […]. They are made quiescent by 16 hours of deprivation before being treated. The treatment consists in bringing into contact for 5 minutes with 15 ml of F12 medium containing insulin supplemented or otherwise with CGP42112 (selective agonist of the AT2 receptor). […] After bringing into contact and washings, the lectin beads coupled to Sepharose (Pharmacia) are recovered in sample buffer containing SDS and the eluted proteins are analysed in SDS-PAGE followed by immunoblotting with anti-phosphotyrosine antibodies (Upstate Biotechnology, Inc.) or anti-IRβ antibodies (described in Issad, T. et al., cited above). […]

AT2 receptor [2] = target: T1, AT2 receptor; assay: Inhibition of insulin-induced tyrosine phosphorylation in CHO-hAT2 cells; type: cell-based; design: a plasmid containing the region encoding the human AT2 receptor; expressed in transfected cells; host or cells: CHO cells deficient in dihydrofolate reductase (clone CHO-hAT2)
From the text: as §1
The CHO-hAT2 cells are inoculated at a density of 3×10^6 cells per dish having a diameter of […]. They are made quiescent by 16 hours of deprivation before being treated. […] After treatment, the cells are solubilized in lysis buffer containing: 50 mM Hepes, pH 7.6, 1% Triton X-100, 20 mM EDTA, 30 mM sodium pyrophosphate, 30 mM sodium fluoride, 2 mM benzamidine, 1 mM sodium orthovanadate, 1 mM phenylmethylsulphonyl fluoride and 1 μg/ml of aprotinin, pepstatin, antipain and leupeptin. The lysates are then subjected to purification on a wheatgerm lectin column, according to the protocol described in Issad, T. et al., (Eur. J. Biochem. 1995, 234, 108-115). After bringing into contact and washings, the lectin beads coupled to Sepharose (Pharmacia) are recovered in sample buffer containing SDS and the eluted proteins are analysed in SDS-PAGE followed by immunoblotting with anti-phosphotyrosine antibodies (Upstate Biotechnology, Inc.) or anti-IRβ antibodies (described in Issad, T. et al., cited above).

[3] = target: T2, C-terminal end of the mouse AT2 receptor; assay: Two-hybrid interaction of the ATIP clone with the AT2 C-terminal bait; type: binding; details: baits in pGBT9 and pLEX9; mouse foetal cDNA library clone
From the text: In the two-hybrid system, the DNA-binding domain is fused with a protein X and the activation domain is fused with a protein Y. If, and only if, X and Y interact, a complex is formed which reconstitutes a functional transcription factor.
Protein X: C-terminal end of the sequence encoding the mouse AT2 receptor (52 amino acids of CVNPF at the stop codon, see FIG. 1), fused with the sequence encoding the Gal4 DNA-binding domain (FIG. 2).
Insert: end of the mouse AT2 receptor (159 bp+16 bp of sites generated by PCR) inserted at the level of the EcoRI and BamHI sites of the vectors pLEX9 (Clontech) or pGBT9 (modified pGAD424 or pBTM116; A. B. Vojtek et al., Cell, 1993, 74, 205-214).
mouse foetal cDNA library (A. B. Vojtek et al., Cell, 1993, 74, 205-214) , containing inserts of 350 to 700 bp (protein Y) in the vector VP16 (FIG. 5).
HF7c (Clontech) for the bait constructed in pGBT9;
L40 for the bait constructed in pLex9.

[4] = test system: C-terminal end of the human bradykinin receptor; assay: Two-hybrid selectivity test with a control bait; type: binding
From the text: (§2) Protein X: C-terminal end of the human β2-adrenergic receptors, rat AT1 or human bradykinin.

[5] = target: T5, C-terminal end of the human β2 adrenergic receptor (Homo sapiens, UniProt P07550); assay: Two-hybrid selectivity test with a control bait; type: binding
T5 construct: C-terminal end of the human β2-adrenergic receptors; expressed in transfected cells
From the text: as §2

[6] = test system: C-terminal end of the rat AT1 receptor; assay: Two-hybrid selectivity test with a control bait; type: binding
From the text: as §2

[7] = target: T3, C-terminal end of the human AT2 receptor (Asn314-Ser363); assay: In vitro GST pull-down of MBP-AT2 on GA-GST-ATIPmouse-short beads; type: binding; details: compared with GA-GSTalone beads; SDS-PAGE and anti-MBP immunoblot; FIG. 10
Description: For that, the fusion protein GST-ATIP as described above was produced; it is combined through its GST part with glutathione coupled to agarose beads (GA). In parallel, bacteria (DH5α) are transfected with a plasmid (pMAL-c2-AT2, derived from pMAL-c2 from New England Biolabs) encoding a fusion protein between the C-terminal end of the human AT2 receptor (Asn314-Ser363) and MBP (Maltose Binding Protein). These bacteria were cultured and the fusion protein was induced in 0.3 mM IPTG according to the protocol “pMAL Protein Fusion and Purification System” from New England Biolabs. After centrifugation of the culture at 4000 g and solubilization of the pellet obtained in “column buffer” (20 mM Tris-HCl, 200 mM NaCl, 1 mM EDTA), another centrifugation at 9000 g made it possible to recover a supernatant containing a high concentration of MBP-AT2. This supernatant was brought into contact, for 3 hours at […], with glutathione agarose beads coupled to GST protein alone after addition of NaCl so as to have 300 mM final NaCl. This preincubation step makes it possible to remove the nonspecific interactions which may exist between ATIP and GA-GST. The supernatant recovered was brought into contact with the GA-GST-ATIPmouse-short or GA-GSTalone beads overnight at 4° C. After contact, the beads were rinsed three times in 20 mM Tris-HCl buffer, 300 mM NaCl, 1 mM EDTA and once in “column buffer”.

[8] = target: T4, C-terminal end of human AT1 receptor (Leu 297-Glu 359); assay: In vitro GST pull-down of MBP-AT1 on GA-GST-ATIPmouse-short beads; type: binding; details: SDS-PAGE and anti-MBP immunoblot; FIG. 10

| Molecule | inhibition of the phosphorylation of the insulin receptor (AT2 receptor [1]) | inhibition of the phosphorylation of IRβ induced by insulin (AT2 receptor [2]; CHO-hAT2 cells, 100 nM, all insulin doses between 0.1 and 0.001 μg/ml, 5 minutes) | inhibition of the phosphorylation of IRβ (AT2 receptor [2]; CHO-hAT2 cells, induced by 0.01 μg/ml insulin, n=7) | inhibition of insulin-induced tyrosine phosphorylation of SIRP (120 kDa) (AT2 receptor [2]; clone CHO-hAT2) | interaction with the C-terminal end of AT2 in the two-hybrid system [3] | two-hybrid interaction with the C-terminal end of the human bradykinin receptor [4] | two-hybrid interaction with the C-terminal end of the human β2 adrenergic receptor [5] | two-hybrid interaction with the C-terminal end of the rat AT1 receptor [6] | retention of the MBP-AT2 protein on GA-GST-ATIPmouse-short beads [7] | retention of the MBP-AT1 protein on GA-GST-ATIPmouse-short beads [8] |
| --- | --- | --- | --- | --- | --- | --- | --- | --- | --- | --- |
| CGP42112 | not observed | inhibit | 64±4% | inhibited |  |  |  |  |  |  |
| ATIPmouse-short: Polypeptide (SEQ ID NO:6) encoded by the 354 bp ATIP clone (SEQ ID NO:5); AT2 interacting protein fragment, used as a GST fusion (protein, used as GST fusion; Insert identified by yeast two hybrid screening of a M. musculus fetal cDNA library) HQTDRTELENRLKDLYTAECEKLQSIYIEEAEKYKTQLQEQFDNLNAAHETTKLEIEASHSEKVELLKKTYETSLSEIKKSHEMEKKSLEDLLNEKQESLEKQINDLKSENDALNERL |  |  |  |  | interacts specifically | negative results | negative results | negative results | specific retention | not retained in a specific manner |
